To fix the notation:
B1: BCY20058 (peptide)
peptide: CSEYCFXPFYHC
modifications: N-terminal acetyl (Ac); CiSEYCiiF[5FTrp]PFYHCiii; Ci, Cii, Ciii on TATA scaffold
B2: BCY18217 (peptide)
peptide: Ac-CSEYCFWPFYHC-NH2
modifications: linker 1-5-12 via TATA
B3: BCY20570 (peptide)
peptide: Ac-CSEYCFWPFDHC
modifications: linker 1-5-12 via TATA
B4: BCY20568 (peptide)
peptide: Ac-CSEYCFWPYYHC
modifications: linker 1-5-12 via TATA
B5: BCY20086 (peptide)
peptide: Ac-C[dA]EYCFWPFYHC
modifications: linker 1-5-12 via TATA
B6: BCY20563 (peptide)
peptide: Ac-CDEYCFWPFYHC
modifications: linker 1-5-12 via TATA
B7: BCY20093 (peptide)
peptide: Ac-CSEYCFWPF[dA]HC
modifications: linker 1-5-12 via TATA
B8: BCY20094 (peptide)
peptide: Ac-CSEYCFWPFY[dA]C
modifications: linker 1-5-12 via TATA
B9: BCY20573 (peptide)
peptide: Ac-CSEYCFWPFYDC
modifications: linker 1-5-12 via TATA
B10: BCY20571 (peptide)
peptide: Ac-CSEYCFWPFEHC
modifications: linker 1-5-12 via TATA
B11: BCY20566 (peptide)
peptide: Ac-CSEYCYWPFYHC
modifications: linker 1-5-12 via TATA
B12: BCY20083 (peptide)
peptide: Ac-CSEYCFWPFYNC-NH2
modifications: linker 1-5-12 via TATA
SMILES: CC(=O)N[C@H]1CSCCC(=O)N2CN3CN(C2)C(=O)CCSC[C@H](NC(=O)[C@H](Cc2ccc(O)cc2)NC(=O)[C@H](CCC(=O)O)NC(=O)[C@H](CO)NC1=O)C(=O)N[C@@H](Cc1ccccc1)C(=O)N[C@@H](Cc1c[nH]c2ccccc12)C(=O)N1CCC[C@H]1C(=O)N[C@@H](Cc1ccccc1)C(=O)N[C@@H](Cc1ccc(O)cc1)C(=O)N[C@@H](CC(N)=O)C(=O)N[C@H](C(N)=O)CSCCC3=O
B13: BCY20070 (peptide)
peptide: Ac-CSEYCFWPLYHC
modifications: linker 1-5-12 via TATA
B14: BCY20084 (peptide)
peptide: Ac-CSEYCFWPFYSC
modifications: linker 1-5-12 via TATA
B15: BCY20087 (peptide)
peptide: Ac-CS[dA]YCFWPFYHC
modifications: linker 1-5-12 via TATA
B16: BCY20576 (peptide)
peptide: Ac-CSEYCFWPFYFC
modifications: linker 1-5-12 via TATA
B17: BCY20082 (peptide)
peptide: Ac-CSEYCFWPFYPC
modifications: linker 1-5-12 via TATA
B18: BCY20574 (peptide)
peptide: Ac-CSEYCFWPFYEC
modifications: linker 1-5-12 via TATA
B19: BCY20572 (peptide)
peptide: Ac-CSEYCFWPFYQC
modifications: linker 1-5-12 via TATA
B20: BCY20062 (peptide)
peptide: CSEYCFXPFYHC
modifications: not fully specified; N-terminal acetyl (Ac); CiSEYCiiF[AzaTrp]PFYHCiii; Ci, Cii, Ciii on TATA scaffold
B21: BCY17669 (peptide)
peptide: ACSEYCFWPFYSCA
modifications: linker 2-6-13 via TATA
B22: BCY17671 (peptide)
peptide: ACSEYCFWPFWNCA
modifications: Ci, Cii, Ciii on TATA scaffold
B23: BCY18227 (peptide)
peptide: ACSEYCFWPFAHCA
modifications: linker 2-6-13 via TATA
B24: BCY18228 (peptide)
peptide: ACSEYCFWPFYACA
modifications: linker 2-6-13 via TATA
B25: BCY18221 (peptide)
peptide: ACSAYCFWPFYHCA
modifications: linker 2-6-13 via TATA
B26: BCY19777 (peptide)
peptide: ACSEYCFWPFYLCA
modifications: linker 2-6-13 via TATA
B27: BCY17670 (peptide)
peptide: ACSEYCFWPFYPCA
modifications: linker 2-6-13 via TATA
B28: BCY17672 (peptide)
peptide: ACSEYCFWPFFNCA
modifications: Ci, Cii, Ciii on TATA scaffold
B29: BCY18225 (peptide)
peptide: ACSEYCFWAFYHCA
modifications: linker 2-6-13 via TATA
B30: BCY18220 (peptide)
peptide: ACAEYCFWPFYHCA-NH2
modifications: linker 2-6-13 via TATA; N-terminus assumed
SMILES: C[C@H](N)C(=O)N[C@H]1CSCCC(=O)N2CN3CN(C2)C(=O)CCSC[C@H](NC(=O)[C@H](Cc2ccc(O)cc2)NC(=O)[C@H](CCC(=O)O)NC(=O)[C@H](C)NC1=O)C(=O)N[C@@H](Cc1ccccc1)C(=O)N[C@@H](Cc1c[nH]c2ccccc12)C(=O)N1CCC[C@H]1C(=O)N[C@@H](Cc1ccccc1)C(=O)N[C@@H](Cc1ccc(O)cc1)C(=O)N[C@@H](Cc1c[nH]cn1)C(=O)N[C@H](C(=O)N[C@@H](C)C(N)=O)CSCCC3=O
B31: BCY20567 (peptide)
peptide: CSEYCXWPFYHC
modifications: N-terminal acetyl (Ac); CiSEYCii[4Pal]WPFYHCiii; Ci, Cii, Ciii on TATA scaffold
B32: BCY20057 (peptide)
peptide: CSEYCFXPFYHC
modifications: N-terminal acetyl (Ac); CiSEYCiiF[6FTrp]PFYHCiii; Ci, Cii, Ciii on TATA scaffold
B33: BCY20222 (peptide)
peptide: Ac-CSEYCFWPFFLC
modifications: linker 1-5-12 via TATA
B34: BCY20056 (peptide)
peptide: Ac-CSEYCF[2Nal]PFYHC
modifications: linker 1-5-12 via TATA
B35: BCY18218 (peptide)
peptide: Ac-ACSEYCFWPFYHCA-NH2
modifications: linker 2-6-13 via TATA
B36: BCY20575 (peptide)
peptide: CSEYCFWPFYXC
modifications: N-terminal acetyl (Ac); CiSEYCiiFWPFY[HArg]Ciii; Ci, Cii, Ciii on TATA scaffold
B37: BCY20085 (peptide)
peptide: Ac-CSEYCFWPFYHCK(Pent4ynoyl)
modifications: linker 1-5-12 via TATA
B38: BCY20096 (peptide)
peptide: CSXYCFWPFYHC
modifications: N-terminal acetyl (Ac); CiS[K(PYA)]YCiiFWPFYHCiii; Ci, Cii, Ciii on TATA scaffold
B39: BCY20220 (peptide)
peptide: Ac-CSEYCFWPFQYC
modifications: linker 1-5-12 via TATA
B40: BCY20221 (peptide)
peptide: Ac-CSYYCFWPFQYC
modifications: linker 1-5-12 via TATA
B41: BCY20101 (peptide)
peptide: Ac-CSEYCFWPK(Pent4ynoyl)YHC
modifications: linker 1-5-12 via TATA
B42: BCY20102 (peptide)
peptide: CSEYCFWPFXHC
modifications: N-terminal acetyl (Ac); CiSEYCiiFWPF[K(PYA)]HCiii; Ci, Cii, Ciii on TATA scaffold
B43: BCY18219 (peptide)
peptide: CSEYCFWPFYHC-NH2
modifications: linker 1-5-12 via TATA
B44: BCY19670 (peptide)
peptide: Ac-CSEYCFW[Aib]FYHC
modifications: linker 1-5-12 via TATA
B45: BCY20064 (peptide)
peptide: Ac-CSEYCF[Phe(3-Me)]PFYHC
modifications: linker 1-5-12 via TATA
B46: BCY20065 (peptide)
peptide: Ac-CSEYCF[Phe(4-CF3)]PFYHC
modifications: linker 1-5-12 via TATA
B47: BCY20051 (peptide)
peptide: CSEYCXWPFYHC
modifications: N-terminal acetyl (Ac); CiSEYCii[2FPhe]WPFYHCiii; Ci, Cii, Ciii on TATA scaffold
B48: BCY20569 (peptide)
peptide: CSEYCFWPXYHC
modifications: N-terminal acetyl (Ac); CiSEYCiiFWP[4Pal]YHCiii; Ci, Cii, Ciii on TATA scaffold

*1 amine or outer side, *2 acyl side, *3 side chain or, on linkers, in order; H or OH if unused. Bridges are numbered along the chain shown (N, C = ends). Where no end group is shown, it is not given here. [ ]: non-standard residue; d: D form. The star is where a group is joined. TATA = O=C(CC[*:1])N1CN(C(=O)CC[*:2])CN(C(=O)CC[*:3])C1; Phe(4-CF3) = N[C@@H](Cc1ccc(C(F)(F)F)cc1)C(=O)O; Phe(3-Me) = Cc1cccc(C[C@H](N)C(=O)O)c1; 2Nal = N[C@@H](Cc1ccc2ccccc2c1)C(=O)O; Pent4ynoyl = C#CCCC(=O)*; Aib = CC(C)(N)C(=O)O

The test deals with T1, Human TREM2 extracellular domain (ECD), residues 19-131, C-terminally biotinylated, deglycosylated (human, UniProt Q9NZC2 19-131, C-terminally biotinylated; deglycosylated).
T1 construct: range 19-131; loaded on Superstreptavidin biosensors; also called triggering receptor expressed on myeloid cells 2; Human BLI (deglycosylated)
T1 sequence (looked up): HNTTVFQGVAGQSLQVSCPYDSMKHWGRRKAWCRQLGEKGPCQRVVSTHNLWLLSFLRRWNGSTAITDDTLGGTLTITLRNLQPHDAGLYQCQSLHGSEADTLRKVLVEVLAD
Kind of test: BLI steady state, deglycosylated human TREM2 ECD on sensor. As for the experimental part:
Bio-layer interferometry was performed on an Octet RED384® system (Sartorius) at 25° C. in a buffer containing 50 mM HEPES (pH 7.5), 150 mM NaCl and 0.1% Tween. […] Reference wells containing no bicycle peptides and reference sensors loaded with an unrelated protein (His-tagged MLLT3a) were subjected to the same assay protocol and double reference subtraction was used for processing to account for non-specific binding. Traces were analysed using Octet Software (Version 11.0). Association and dissociation curves were globally fit and the response at equilibrium (Req) plotted against concentration to obtain steady-state KD values.
As to B1, binding was characterised by a dissociation constant (Kd) of 1430 nM. With B2 the figure was 900 nM. Then B3, with 1870 nM. Then B4, with 2280 nM; and B5, with 18000 nM. For the molecule B6, the Kd (commonly the concentration at which binding is half-saturated) was found to be 3170 nM.

In turn, B7 yielded a dissociation constant (Kd) of 4680 nM. Then B8, with 2530 nM.

The molecule B9 returned a Kd of 1960 nM. Then B10, with 2210 nM. Then B11, with 2140 nM; and B12, with 1840 nM; and B13, with 1660 nM. Then B14, with 1650 nM; and B15, with 18000 nM. B16: binding was characterised by a dissociation constant (Kd) of 1350 nM. With B17 the figure was 1930 nM; with B18, 1740 nM; with B19, 1060 nM. As for B20, the Kd worked out at 3440 nM. With B21 the figure was 1200 nM; with B22, 900 nM. Then B23, with 3100 nM; and B24, with 2600 nM; and B25, with 1800 nM.

As to B26, the Kd is roughly 1200 nM. Then B27, with 1700 nM.

For the molecule B28, the Kd is 2000 nM.

In turn, B29 had a Kd of 14000 nM. With B30 the figure was 2000 nM. With B31 the figure was 1020 nM; with B32, 2560 nM.

In the case of B33, the Kd is 1570 nM. With B34 the figure was 4690 nM; with B35, 2000 nM.

For the molecule B36, the Kd is 375 nM. With B37 the figure was 1620 nM. With B38 the figure was 2500 nM; with B39, 1300 nM. Then B40, with 690 nM; and B41, with 18600 nM.

B42 gave a Kd of 1460 nM.

B43 gave a dissociation constant Kd of 700 nM. With B44 the figure was 30000 nM.

Molecule B45 came in with a dissociation constant (Kd) of 5240 nM. Then B46, with 7280 nM; and B47, with 2040 nM.

In the case of B48, binding was characterised by a dissociation constant (Kd) of 3800 nM.

The values above are taken from patent US20220296726A1 (Bicycle, published 2022).
